Laboratory results: paper PMC7486400, “Allosteric coupling between α-rings of the 20S proteasome” (Nature Communications, 2020)
Substitutions are numbered along the chain they refer to. Names may count otherwise. “And” between values parts separate entries of the source, which are not always exact repeats. Identical values can stand only once.

B1: Thermoplasma acidophilium 20S proteasome β-subunit, pro-peptide truncated (residues 2–8 removed) (natural protein)
chain: TTTVGITLKDAVIMATERRVTMENFIMHKNGKKLFQIDTYTGMTIAGLVGDAQVLVRYMKAELELYRLQRRVNMPIEAVATLLSNMLNQVKYMPYMVQLLVGGIDTAPHVFSIDAAGGSVEDIYASTGSGSPFVYGVLESQYSEKMTVDEGVDLVIRAISAAKQRDSASGGMIDVAVITRKDGYVQLPTDQIESRIRKLGLIL
notes: 20S proteasome β-subunit of Thermoplasma acidophilum; residues 2–8 truncated to simulate the autoproteolytic removal of the N-terminal pro-peptide; A protease (TEV) site stands before the tag; Tags were removed after final purification of the assembled CP; also called β monomers; source: E. coli BL21(DE3), purified (Ni-NTA)
B2: Thermoplasma acidophilium 20S proteasome α-subunit, wild type, full-length (natural protein, UniProt P25156 1-233, looked up)
chain: MQQGQMAYDRAITVFSPDGRLFQVEYAREAVKKGSTALGMKFANGVLLISDKKVRSRLIEQNSIEKIQLIDDYVAAVTSGLVADARVLVDFARISAQQEKVTYGSLVNIENLVKRVADQMQQYTQYGGVRPYGVSLIFAGIDQIGPRLFDCDPAGTINEYKATAIGSGKDAVVSFLEREYKENLPEKEAVTLGIKALKSSLEEGEELKAPEIASITVGNKYRIYDQEEVKKFL
notes: 20S proteasome α-subunit of Thermoplasma acidophilum, full-length; For the asymmetric CP the wild-type ring was co-expressed from α-His and α-MBP (both C-terminal, TEV site before the tag); All tags were removed after final purification, so the subunit is untagged in the EM samples; All these forms are kept as one molecule here; also called αWT; αwt
B3: Thermoplasma acidophilium 20S proteasome α-subunit R28L (natural protein, UniProt P25156 1-233, looked up)
chain: B2 chain with R28L
notes: also called proximal α-ring of PAN-αWTββα_(K66A)
B4: Thermoplasma acidophilium 20S proteasome α-subunit K66A (natural protein, UniProt P25156 1-233, looked up)
chain: B2 chain with K66A
notes: 20S proteasome α-subunit of Thermoplasma acidophilum, full-length, K66A; In the EM samples the K66A ring (distal ring of the asymmetric CP) is untagged; also called α_(K66A); distal α-ring; source: E. coli BL21(DE3), purified (strep-trap column)

Columns and labels:
[1] = biological target: in vitro assembled symmetric wild-type Thermoplasma acidophilium 20S core particle αWTββαWT (Thermoplasma acidophilium) (UniProt P25156)
[2] = biological target: in vitro assembled asymmetric Thermoplasma acidophilium 20S core particle αWTββα_(K66A) (Thermoplasma acidophilium) (UniProt P25156)
[3] = biological target: in vitro assembled symmetric wild-type Thermoplasma acidophilium 20S core particle αWTββαWT (Thermoplasma acidophilium) (UniProt P25156); remark: listed apart in the source
[4] = biological target: in vitro assembled asymmetric Thermoplasma acidophilium 20S core particle αWTββα_(K66A) (Thermoplasma acidophilium) (UniProt P25156); remark: listed apart in the source
[5] = biological target: B3; assay: cryo-EM structure; single-particle cryo-EM of asymmetric CP with one activator bound, with or without substrate (LFP, GFP-ssrA), C7 symmetry applied, about 3 Å; PAN complexes with nucleotide; settings: both partners purified
[6] = biological target: B2; assay: as above; settings: both partners purified
[7] = biological target: B4; assay: in vitro reconstitution with two-step affinity purification; two types of purified α-subunits and β-subunit mixed 1:2:1 in Tris buffer pH 7.5, 1 h at 37 °C; strep-trap column (α K66A), TEV cleavage of all tags except MBP, then MBP column (wild-type α); settings: both partners purified
[8] = biological target: the molecule itself; assay: negative stain EM; α-subunits expressed in E. coli and purified alone; Supplementary Fig. 1c–i (panel c is negative stain EM; the method of the other panels was not shown)
[9] = biological target: the molecule itself; assay: cryo-EM structure; single-particle cryo-EM of asymmetric CP with one activator bound, with or without substrate (LFP, GFP-ssrA), C7 symmetry applied, about 3 Å; PAN complexes with nucleotide

For “PA26 (Trypanosoma brucei) with the point mutation V230F (natural protein)”, the Kcat (1/min) of LFP peptidase activity, CP with PA26 (doubly capped) [1] was 0.839 s⁻¹, the Vmax (μM/min) of LFP peptidase activity, CP with PA26 (doubly capped) [1] was 805 µM/min and the Kcat (1/min) of LFP peptidase activity, CP with PA26 (singly capped) [2] was 0.426 s⁻¹. The Vmax (μM/min) of LFP peptidase activity, CP with PA26 (singly capped) [2] was 409 µM/min.

Molecule “PA26PANc: PA26 (Trypanosoma brucei) with E102A and the last eight C-terminal residues replaced with the last eight C-terminal residues of PAN” has a Kcat (1/min) of LFP peptide degradation, 16 nM CP with 112 nM activator (doubly capped) [3] of 0.207 s⁻¹, a Vmax (μM/min) of LFP peptide degradation, 16 nM CP with 112 nM activator (doubly capped) [3] of 199 µM/min and a Kcat (1/min) of LFP peptide degradation, 16 nM CP with 112 nM activator (singly capped) [4] of 0.24 s⁻¹. For the same molecule, the Vmax (μM/min) of LFP peptide degradation, 16 nM CP with 112 nM activator (singly capped) [4] was 230 µM/min.

B1: binds [5]; binds [6]; binds [7].

For B2, the “stoichiometry N” value [8] was 7 and 14 and the binding result [7] was “binds”.

B3: binds [9].

B4: binds [9].
